Data set [1] has as its system rheumatoid synovial cells. Conditions: cited from earlier work.
For data set [2], the system named is IL-11 mediated signalling. The settings on record: cited from earlier work.
Another data set concerns HFMCD-fed mice. The data set is described as follows: Hepatocyte-specific sgp130 expression in HFMCD-fed mice. Format: in vivo, mouse. How it is done: (§1) Three weeks prior to starting either the WDF and HFMCD diet, mice were injected with an AAV8 virus encoding either albumin promoter-driven sgp130 (AAV8-Alb-sgp130), which contains the whole extracellular domain of mouse gp130 protein (amino acid 1 to 617), or albumin promoter alone (AAV8-Alb-Null) (FIGS. 35A, 41A, and 42A). AAV8-Alb-sgp130 administration induced high levels of sgp130 in the liver, which was also detectable in the peripheral circulation, suitable for both local and systemic inhibition of putative IL6 or IL11 trans-signaling (FIGS. 35B, 41B, 42B-42C).
6-8 weeks old C57BL/6N, Il11ra1−/− mice, and Il11ra1loxP/loxP and their respective control were fed with methionine- and choline-deficient diet supplemented with 60 kcal % fat (HFMCD, A06071301B16, Research Diets) for 4 weeks. Control mice received normal chow (NC, Specialty Feeds).
(§2) 6-8-week old male C57BL/6N mice (InVivos) were injected with 4×10^11 gc AAV8-Alb-sgp130 virus to induce hepatocyte specific expression of soluble gp130; control mice were injected with 4×10^11 gc AAV8-Alb-Null virus. 3 weeks following virus administration, mice were fed with HFMCD, WDF, or NC for durations that are described.

A further data set has as its system WDF-fed mice. As to the kind of experiment: Hepatocyte-specific sgp130 expression in WDF-fed mice. The data set is classed as in vivo, mouse. On the procedure:
as §1
6-8 weeks old C57BL/6N, Il11ra1−/− mice, and Il11ra1loxP/loxP and their respective control were fed western diet (D12079B, Research Diets) supplemented with 15% weight/volume fructose in drinking water (WDF) for 16 weeks. Control mice received NC and tap water.
as §2

The subject of data set [3] is primary human hepatocytes. The data set is described as follows: Palmitate loading (lipotoxicity) of primary human hepatocytes. The data set is classed as cell-based. How it is done: Palmitate:BSA conjugated solution in the ratio of 6:1 was prepared as described earlier (Alsabeeh et al., 2018). Palmitate (0.5 mM) conjugated in fatty acids free BSA was used to treated cells as described in figure legends; 0.5% BSA solution was used as control. […]
Primary human hepatocytes were seeded on 8-well chamber slides (1×10^4 cells/well). For this experiment, cells were not serum-starved prior to palmitate treatment. 24 hours following palmitate stimulation, cells were washed, incubated with 25 μM of DCFDA solution (ab113851, Abcam) for 45 minutes at 37° C. in the dark, and rinsed with dilution buffer according to the manufacturer's protocol. Live cells with positive DCF staining were imaged with filter set appropriate for fluorescein (FITC) using a fluorescence microscope (Leica). […]
(§3) Western blots were carried out on total protein extracts from hepatocytes and liver tissues. Hepatocyte and liver tissue lysates were homogenized in RIPA Lysis and Extraction Buffer (89901, Thermo Scientific) containing protease and phosphatase inhibitors (Roche). Protein lysates were separated by SDS-PAGE and transferred to PVDF membranes. Protein bands were visualized using the ECL detection system (Pierce) with the appropriate secondary antibodies: anti-rabbit HRP or anti-mouse HRP.

Data set [4] has as its system primary human hepatocytes. The data set is described as follows: Stimulation of primary human hepatocytes with IL11, hyperIL11, hyperIL6. The data set is classed as cell-based. On the procedure: Human hepatocytes (5200, ScienCell) were grown and maintained in hepatocyte media (5201, ScienCell) supplemented with 2% fetal bovine serum (FBS) and 1% Penicillin-streptomycin.
Primary human hepatocytes (5200, ScienCell) were maintained in hepatocyte medium ([…], ScienCell) supplemented with 2% fetal bovine serum, 1% Penicillin-streptomycin at 37° C. and 5% CO2. Hepatocytes (P2-P3) were serum-starved overnight unless otherwise specified in the methods prior to 24 hours stimulation with different doses of various recombinant proteins as described.
For surface IL11RA, IL6R, and gp130 analysis, primary human hepatocytes and THP-1 cells were stained with IL11RA, IL6R, or gp130 antibody and the corresponding Alexa Fluor 488 secondary antibody. Cell death analysis was performed by staining primary human hepatocytes with Dead Cell Apoptosis Kit with Annexin V FITC and PI (V13242, Thermo Fisher). PI+ve cells were then quantified with the flow cytometer (Fortessa, BD Biosciences) and analyzed with FlowJo version X software (TreeStar).
Alanine Aminotransferase (ALT) activity in the cell culture supernatant and mouse serum was measured using ALT Activity Assay Kit (ab105134, Abcam). Liver Glutathione (GSH) levels were measured using Glutathione Colorimetric Detection Kit (EIAGSHC, Thermo Fisher). Total hydroxyproline content in mouse livers was measured using Quickzyme Total Collagen assay kit (QZBtotco15, Quickzyme Biosciences). The levels of serum and liver triglycerides were measured using Triglyceride Assay Kit (ab65336, Abcam). Mouse serum levels of Aspartate Aminotransferase (AST) and cholesterol were measured using AST Assay Kit (ab105135, Abcam) and Cholesterol Assay Kit (ab65390; Abcam), respectively. All colorimetric assays were performed according to the manufacturer's protocol.
as §3

On to `COc1ccc2c(c1)c(CC(=O)O)c(C)n2C(=O)c1ccc(Cl)cc1` [indomethacin, reference compound], for which the “expression of IL-11” value in data set [1] was “reduction in the expression of IL-11”.

B1: W147A: IL-11 antagonist mutein, amino acid 147 mutated from tryptophan to alanine (protein, UniProt P20809 22-199, looked up, variant W147A)
Interleukin-11: PGPPPGPPRVSPDPRAELDSTVLLTRSLLADTRQLAAQLRDKFPADGDHNLDSLPTLAMSAGALGALQLPGVLTRLRADLLSYLRHVQWLRRAGGSSLKTLEPELGTLQARLDRLLRRLQLLMSRLALPQPPPDPPAPPLAPPSSAAGGIRAAHAILGGLHLTLDWAVRGLLLLKTRL
For the molecule B1, the “antagonism of IL-11 mediated signalling” value in data set [2] was “efficient blockade of IL-11 signalling”.

B2: sIL-11R: soluble murine IL-11 receptor alpha chain (Curtis et al.) (protein, UniProt Q64385 24-372, looked up)
extracellular domain: SPCPQAWGPPGVQYGQPGRPVMLCCPGVSAGTPVSWFRDGDSRLLQGPDSGLGHRLVLAQVDSPDEGTYVCQTLDGVSGGMVTLKLGFPPARPEVSCQAVDYENFSCTWSPGQVSGLPTRYLTSYRKKTLPGAESQRESPSTGPWPCPQDPLEASRCVVHGAEFWSEYRINVTEVNPLGASTCLLDVRLQSILRPDPPQGLRVESVPGYPRRLHASWTYPASWRRQPHFLLKFRLQYRPAQHPAWSTVEPIGLEEVITDAVAGLPHAVRVSARDFLDAGTWSAWSPEAWGTPSTGPLQDEIPDWSQGHGQQLEAVVAQEDSPAPARPSLQPDPRPLDHRDPLEQVAVLA
modifications: extracellular domain
With B2, the “antagonism of IL-11 mediated signalling” value in data set [2] was “capable of antagonizing the activity of IL-11”.

B3: interferon-gamma: interferon-gamma (IFNγ) (protein, UniProt P01579 24-161, looked up)
Interferon gamma: QDPYVKEAENLKKYFNAGHSDVADNGTLFLGILKNWKEESDRKIMQSQIVSFYFKLFKNFKDDQSIQKSVETIKEDMNVKFFNSNKKKRDDFEKLTNYSVTDLNVQRKAIHELIQVMAELSPAAKTGKRKRSQMLFRG
On to B3, for which, in data set [1], the “expression of IL-11” value was “reduction in the expression of IL-11”.

B4: sgp130: Soluble gp130, inhibitor of trans-signaling; human sgp130 Fc in vitro, mouse sgp130 expressed from AAV8-Alb-sgp130 in vivo (protein)
chain: ELLDPCGYISPESPVVQLHSNFTAVCVLKEKCMDYFHVNANYIVWKTNHFTIPKEQYTIINRTASSVTFTDIASLNIQLTCNILTFGQLEQNVYGITIISGLPPEKPKNLSCIVNEGKKMRCEWDGGRETHLETNFTLKSEWATHKFADCKAKRDTPTSCTVDYSTVYFVNIEVWVEAENALGKVTSDHINFDPVYKVKPNPPHNLSVINSEELSSILKLTWTNPSIKSVIILKYNIQYRTKDASTWSQIPPEDTASTRSSFTVQDLKPFTEYVFRIRCMKEDGKGYWSDWSEEASGITYEDRPSKAPSFWYKIDPSHTQGYRTVQLVWKTLPPFEANGKILDYEVTLTRWKSHLQNYTVNATKLTVNLTNDRYLATLTVRNLVGKSDAAVLTIPACDFQATHPVMDLKAFPKDNMLWVEWTTPRESVKKYILEWCVLSDKAPCITDWQQEDGTVHRTYLRGNLAESKCYLITVTPVYADGPGSPESIKAYLKQAPPSKGPTVRTKKVGKNEAVLEWDQLPVDVQNGFIRNYTIFYRTIIGNETAVNVDSSHTEYTLSSLTSDTLYMVRMAAYTDEGGKDGPEFTFTTPKFAQGEIE
modifications: left off: a dimerising Fc or GST
notes: human sgp130 Fc in vitro, mouse sgp130 expressed from AAV8-Alb-sgp130 in vivo
On to B4, for which the diet-induced signaling events entry with HFMCD-fed mice (HFMCD) is on record as “no effect”. In the data set on HFMCD-fed mice (HFMCD 4 weeks), the HFMCD-induced liver fibrosis result was “unchanged”; the “expression of inflammation and fibrosis genes” value is recorded as “unaffected”; the “hepatocyte damage markers (ALT and AST) and GSH” value was “irrespective of sgp130 expression”; the steatosis entry is “unaltered”. Besides, in the data set on WDF-fed mice (16 weeks of WDF), the “ALT, AST, collagen, fasting blood glucose, serum triglycerides, serum cholesterol, GSH” value is given as “none of these parameters were affected”; the “expression of pro-inflammatory and fibrosis genes” value was “unaffected”; the “obesity, liver mass and steatosis phenotypes” value is recorded as “unaffected”. For the same molecule, the diet-induced signaling events entry in the data set on WDF-fed mice (WDF) was “no effect”. Also, the palmitate-induced signaling events result in data set [3] (Western blot) was “no effect”. In addition, in data set [3] (X209 2 μg/ml or sgp130 1 μg/ml), the “secretion of cytokines (IL11, IL6, CCL2, CCL5)” value is “no effect”. In addition, the “IL11-induced hepatocyte death and signaling” value in data set [4] (IL11 20 ng/ml, sgp130 or sIL11RA 1 μg/ml) was “unaffected”. Besides, the “ALT release from IL11-stimulated hepatocytes” value in data set [4] (increasing doses of sgp130 or sIL11RA) is listed as “no effect”. In addition, in data set [4] (sgp130 added), the “activation of signaling downstream of hyperIL6 (p-STAT3)” value was “blocked”, the “activation of signaling downstream of hyperIL11 (p-ERK/p-JNK)” value is reported as “blocked” and the “hepatotoxic effects of hyperIL11” value was “inhibited”. Further, the “IL11 dose-dependent hepatocyte cell death on addition of decoy” value in data set [4] (sgp130 or sIL11RA 1 μg/ml) is given as “unaffected”.
